Measurements as given in patent US10428140B2, “Anti-EphA4 antibody” (EISAI R&D MANAGEMENT CO., LTD., priority 2015, dated 2019).

Columns and labels:
[1] = tested on: EphA4 autophosphorylation induced by mouse Ephrin A1; test: In vivo competition assay using mouse newborns (EphA4 autophosphorylation in cerebral hemisphere); conditions: 8-day-old mouse, 300 mg/kg subcutaneous
Description: The in vivo competition assay using mouse newborns was conducted according to the following steps. PBS (Wako Pure Chemical Industries), antibody A, or a control antibody (mouse anti-dinitrophenol antibody) produced with a conventional procedure by immunizing […] with dinitrophenol was subcutaneously administered at a dose of 300 mg/kg (30 mL/kg) to each 8-day-old mouse (Charles River Laboratories Japan). After 24 hours, the scalp was incised under 4% isoflurane (Intervet) anesthesia, and mouse Ephrin A1-Fc chimera (300 pmol/head, R&D Systems) or PBS (Wako Pure Chemical Industries) was administered into the lateral ventricle. 1 hour thereafter, the mouse was euthanized by decapitation, followed by the extirpation of the cerebral hemisphere. […] 3×SDS sample buffer was added to a portion of the homogenate, which was then boiled for 10 minutes, followed by protein quantification. […] The remaining homogenate was subjected to protein quantification and then dispensed in an amount corresponding to 3 mg of protein, and 1% Triton X-100 (Wako Pure Chemical Industries) and 0.1% SDS (Nacalai Tesque) were added thereto. […] Western blotting using an anti-EphA4 monoclonal antibody (Abnova) was further performed, and band intensity was quantified to calculate a value of phosphorylated EphA4/total EphA4. […]

[2] = biological target: T1, mouse EphA4 (binding to mouse Ephrin A1) (Mus musculus, UniProt Q03137); test: Mouse EphA4-mouse ligand binding inhibition ELISA (Ephrin A1-Fc); conditions: mouse EphA4-mouse ligand binding inhibition
T1 construct: made in house; host or cells: HEK293EBNA cells
Description: Antibody A obtained in Example 1 was evaluated for its inhibitory activity against the binding between mouse EphA4 and its mouse ligand according to the following steps. Each well of a 96-well plate (Nunc) was coated with an anti-alkaline phosphatase antibody (Thermo Fisher Scientific). After incubation overnight at 4° C., each well was blocked with 1% BlockAce (DS Pharma Biomedical) at room temperature for 1 hour. After washing with 0.05% Tween 20/PBS (Thermo Fisher Scientific) three times, the mouse EphA4 extracellular region-SEAP-His protein obtained by the method of Example 1 was added (final concentration: 10 nM) to each well and incubated at room temperature for 1 hour. After washing three times, ligands and serially diluted antibody A (0, 0.001, 0.003, 0.01, 0.03, 0.1, 0.3, 1,3, 10, 30, 100, 300, and 1000 nM) or a known EphA4 inhibitor KYL peptide (KYLPYWPVLSSL, 0, 0.003, 0.01, 0.03, 0.1, 0.3, 1, 3, 10, 30, and 100 μM, its synthesis was outsourced to Hokkaido System Science) or compound 1 (0, 0.03, 0.1, 0.3, 1,3, 10, 30, 100, 300, and 1000 μM, Formula 1, Matrix Scientific) were added to each well. The ligands used were mouse Ephrin A1-Fc chimera (R&D Systems, final concentration: 20 nM) and mouse Ephrin B2-Fc chimera (R&D Systems, final concentration: 0.6 nM). […] The absorbance at 450 nm was read using a microplate reader (Molecular Devices).

T1 sequence (Q03137 with tags, fused parts or gaps): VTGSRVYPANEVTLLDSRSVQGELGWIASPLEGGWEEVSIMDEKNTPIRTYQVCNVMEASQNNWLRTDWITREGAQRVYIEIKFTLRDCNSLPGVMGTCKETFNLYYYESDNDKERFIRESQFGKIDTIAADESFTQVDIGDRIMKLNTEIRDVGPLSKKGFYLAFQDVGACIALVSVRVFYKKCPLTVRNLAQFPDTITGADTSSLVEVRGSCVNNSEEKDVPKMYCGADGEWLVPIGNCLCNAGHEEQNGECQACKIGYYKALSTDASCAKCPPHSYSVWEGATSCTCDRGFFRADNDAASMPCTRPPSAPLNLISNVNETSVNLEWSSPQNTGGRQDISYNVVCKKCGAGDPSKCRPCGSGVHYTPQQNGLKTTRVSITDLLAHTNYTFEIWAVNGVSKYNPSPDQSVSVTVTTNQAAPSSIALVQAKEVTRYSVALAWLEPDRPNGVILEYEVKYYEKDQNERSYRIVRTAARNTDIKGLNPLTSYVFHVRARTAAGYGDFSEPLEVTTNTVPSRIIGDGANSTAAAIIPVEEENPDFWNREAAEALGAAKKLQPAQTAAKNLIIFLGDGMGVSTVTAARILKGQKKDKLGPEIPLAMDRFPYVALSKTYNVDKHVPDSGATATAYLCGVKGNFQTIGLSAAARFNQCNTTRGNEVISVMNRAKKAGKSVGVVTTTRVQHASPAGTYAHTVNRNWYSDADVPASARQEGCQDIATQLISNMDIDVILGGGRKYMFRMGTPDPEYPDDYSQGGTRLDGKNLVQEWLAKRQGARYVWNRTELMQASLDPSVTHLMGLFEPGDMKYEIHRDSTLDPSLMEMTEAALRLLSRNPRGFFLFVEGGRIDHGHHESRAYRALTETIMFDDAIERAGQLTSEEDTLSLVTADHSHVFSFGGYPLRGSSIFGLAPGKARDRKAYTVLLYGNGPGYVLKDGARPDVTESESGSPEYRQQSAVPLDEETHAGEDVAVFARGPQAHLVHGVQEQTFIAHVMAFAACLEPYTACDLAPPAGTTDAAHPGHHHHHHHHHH

B1: antibody A: mouse anti-EphA4 monoclonal antibody, IgG1/κ; heavy chain variable region SEQ ID NO: 11, light chain variable region SEQ ID NO: 13 (antibody, listed as Mus musculus, V domains shown)
VH: QIQLVQSGPELKKPGETVKISCKASGYTFTDYSMHWVKQAPGKGLKWMGWINTETGEPTYADDFKGRFAFSLETSASTAYLQINNLKNEDTATYFCARIPLYYYGSRYWYFDVWGAGTTVTVSS
VL: DIQMTQSPASLSVSVGETVTITCRASENIYRNLAWYQQKQGKSPQLLVYAATNLADGVPSRFSGSGSGTQYSLKINSLQSEDFGSYYCQHFWGTPWTFGGGTKLEIK
In the case of B1, the “suppression of mouse EphrinA1-induced EphA4 autophosphorylation” value [1] is reported as 66% and the “activity relative to KYL peptide (times stronger)” value [2] is reported as ≥ 1,000 times.
